Measurements published in paper PMC6534964 (Journal of the American Chemical Society, 2018).
Numbering of substitutions follows the chain as printed. Numbers in names are those of the source.

T1: S100A9(C3S), subunit of CP-Ser (human, UniProt P06702 2-114, C3S)
T1 sequence (looked up): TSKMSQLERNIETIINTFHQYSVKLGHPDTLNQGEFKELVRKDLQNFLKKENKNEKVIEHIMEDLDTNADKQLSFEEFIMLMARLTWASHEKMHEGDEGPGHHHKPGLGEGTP

B1: CP-Ser, S100A8(C42S)/S100A9(C3S) heterodimer of human calprotectin (complex)
chain 1: MLTELEKALNSIIDVYHKYSLIKGNFHAVYRDDLKKLLETESPQYIRKKGADVWFKELDINTDGAVNFQEFLILVIKMGVAAHKKSHEESHKE
chain 2: T1 sequence (looked up)
B2: S100A8, subunit of native CP (natural protein, human, UniProt P05109 1-93, looked up)
chain: B1 chain 1 with S42C
B3: CP-Ser M81A variant, S100A8(C42S)/S100A9(C3S)(M81A) (complex, human)
chain 1: B1 chain 1
chain 2: T1 sequence (looked up) with M80A
B4: S100A9, subunit of native CP (natural protein, human, UniProt P06702 2-114, looked up)
chain: T1 sequence (looked up) with S2C
B5: S100A8(C42S), subunit of CP-Ser (natural protein, human, UniProt P05109 1-93, looked up)
chain: B1 chain 1

Assays:
SEC = molecular target: the molecule itself; assay: SEC
[1] = molecular target: B4; assay: cross-linking
cross-linking = molecular target: the molecule itself; assay: cross-linking
[2] = molecular target: T1, S100A9(C3S), subunit of CP-Ser; assay: anion exchange chromatography

Binder: B1
binding result (SEC): binds

Binder: B2
binding result [1]: binds

Binder: B3
binding result (SEC): binds

Binder: B4
binding result (cross-linking): binds

Binder: B5
binding result [2]: binds
